Target: FKBP12-Gag^HIV fusion protein (FKBP12 domain added to the N-terminal of Gag of HIV) (human immunodeficiency virus (HIV))
Test: cell-based or functional assay
Details: scale: times

## luciferase protein fused with an FRB domain (FRB-Luc) (from UniProt P42345 2021-2113)
  luciferase activity in HEK293T cells 16 hours after introduction of VLPs: 12

From patent US20210269790A1
